Experimental data: patent publication US20210347913A1 (CRISPR THERAPEUTICS, published 2021)
Changes are numbered by the printed parent chain.

T1: PTK7 on PTK7 positive cell line SaOS-2 (osteosarcoma) (UniProt Q13308 31-1070, limits assumed)
T1 sequence (looked up): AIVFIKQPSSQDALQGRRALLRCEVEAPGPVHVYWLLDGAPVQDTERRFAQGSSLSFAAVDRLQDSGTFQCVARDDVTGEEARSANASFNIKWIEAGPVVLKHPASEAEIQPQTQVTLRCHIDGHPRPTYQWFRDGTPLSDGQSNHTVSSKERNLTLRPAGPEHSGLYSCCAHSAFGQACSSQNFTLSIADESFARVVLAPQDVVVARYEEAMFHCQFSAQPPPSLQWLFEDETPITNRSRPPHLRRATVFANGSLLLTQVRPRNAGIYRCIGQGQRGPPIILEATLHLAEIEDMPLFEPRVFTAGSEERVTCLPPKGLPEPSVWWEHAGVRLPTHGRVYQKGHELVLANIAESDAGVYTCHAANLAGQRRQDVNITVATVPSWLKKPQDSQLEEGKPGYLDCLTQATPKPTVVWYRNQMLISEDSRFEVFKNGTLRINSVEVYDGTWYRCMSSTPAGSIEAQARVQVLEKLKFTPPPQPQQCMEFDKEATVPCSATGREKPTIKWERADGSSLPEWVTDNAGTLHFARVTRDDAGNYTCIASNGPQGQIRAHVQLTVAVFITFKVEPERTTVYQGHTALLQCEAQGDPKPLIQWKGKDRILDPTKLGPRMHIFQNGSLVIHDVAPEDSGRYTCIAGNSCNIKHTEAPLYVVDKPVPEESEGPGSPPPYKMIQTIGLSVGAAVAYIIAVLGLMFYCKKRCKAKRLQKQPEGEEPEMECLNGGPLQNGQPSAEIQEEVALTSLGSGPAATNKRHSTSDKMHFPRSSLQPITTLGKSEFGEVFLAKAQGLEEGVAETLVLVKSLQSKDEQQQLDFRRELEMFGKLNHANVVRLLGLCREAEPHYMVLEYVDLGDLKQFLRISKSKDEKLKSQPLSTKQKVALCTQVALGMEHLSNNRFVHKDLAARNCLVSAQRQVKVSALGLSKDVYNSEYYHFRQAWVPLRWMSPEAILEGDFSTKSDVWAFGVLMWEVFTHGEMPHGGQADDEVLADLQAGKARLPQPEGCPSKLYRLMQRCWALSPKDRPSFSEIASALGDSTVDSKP

B1: CTX181.M3 (other)
chain: QGCTMPPSPRSKVICGSSGGSGGSGGSGGGPLGLAGGSSGQVQLVESGGGVVQPGRSLRLSCAASGFTFSSYGMHWVRQAPGKGLEWVAVIWDDGSNKYYVDSVKGRFTISRDNSKNTLYLQMNSLRAEDTAVYYCARDDYYGSGSFNSYYGTDVWGQGTTVTVSSGGGGSGGGGSGGGGSEIVLTQSPATLSLSPGERATLSCRASQSVSIYLAWYQQKPGQAPRLLIYDASNRATGIPARFSGSGSGTDFTLTISSLEPEDFAVYYCQQRSNWPPFTFGPGTKVDIKSAAAFVPVFLPAKPTTTPAPRPPTPAPTIASQPLSLRPEACRPAAGGAVHTRGLDFACDIYIWAPLAGTCGVLLLSLVITLYCNHRNRSKRSRLLHSDYMNMTPRRPGPTRKHYQPYAPPRDFAAYRSRVKFSRSADAPAYQQGQNQLYNELNLGRREEYDVLDKRRGRDPEMGGKPRRKNPQEGLYNELQKDKMAEAYSEIGMKGERRRGKGHDGLYQGLSTATKDTYDALHMQALPPR
B2: CTX181.M12 (other)
chain: B1 chain with P7V, S8H, P9T, R10Y, K12Q, V13W, I14L
B3: mask peptide M14 (peptide)
peptide: CTHVAQWAIKAFC
notes: Found by phage display (Screen 2); in the masked constructs preceded by QG and fused through a cleavable linker
B4: mask peptide M3 (peptide)
peptide: CTMPPSPRSKVIC
notes: as for B3
B5: mask peptide M5 (peptide)
peptide: CTYPSWVAYIRFC
notes: as for B3
B6: mask peptide M11 (peptide)
peptide: CTMPSHAVASFLC
notes: as for B3
B7: mask peptide M10 (peptide)
peptide: CYIGLRMVPCFHM
notes: as for B3
B8: mask peptide M8 (peptide)
peptide: WCTIPSSMSIRLC
notes: as for B3
B9: mask peptide M12 (peptide)
peptide: CTMPVHTYSQWLC
notes: as for B3
B10: mask peptide M13 (peptide)
peptide: CTYPPRFHMHWLC
notes: as for B3
B11: mask peptide M4 (peptide)
peptide: CTFPNTTMQRTFC
notes: as for B3
B12: mask peptide M7 (peptide)
peptide: CTMPYHIHSIGLC
notes: as for B3
B13: mask peptide M9 (peptide)
peptide: CHIGKRPVPCLWI
notes: as for B3
B14: mask peptide M6 (peptide)
peptide: VCTYPPAHRTRFC
notes: as for B3

These binders were tested against T1, PTK7 on PTK7 positive cell line SaOS-2 … (assay: cell-based or functional assay).

Binder | % Cell killing at E:T = 1:0.5 | % Cell killing at E:T = 1:1
B1 | 39% | 17.8%
B2 | 29.5% | 18.5%

Biological target: T1, PTK7 on PTK7 positive cell line SaOS-2 …
Experiment: cell-based or functional assay
Remark: another data set of the same source

Binder | IFNγ (pg/mL) at E:T = 1:0.5 | IFNγ (pg/mL) at E:T = 1:1
B1 | 833 pg/mL | 799 pg/mL
B2 | 2420 pg/mL | 1770 pg/mL

These binders were tested against T2, anti-PTK7 antibody Ab181 (assay: phage display selection of peptide binders of Ab181 (Screen 2, XnCXnCXn library)).
T2 construct: Unmasked parent IgG1kappa; also called Ab181 IgG1kappa

Binder | binding result
B3 | binds
B4 | binds
B5 | binds
B6 | binds
B7 | binds
B8 | binds
B9 | binds
B10 | binds
B11 | binds
B12 | binds
B13 | binds
B14 | binds
